Experimental data from article PMC8523659 (Scientific Reports, 2021).

Molecular target: T1, human serum albumin (Homo sapiens, UniProt P02768)
T1 construct: human serum albumin (HSA), purchased from Sigma-Aldrich Japan; dissolved in phosphate buffer and dialysed; also called HSA; source: bought: Sigma-Aldrich Japan
Experiment: SPR; Biacore T200; HSA immobilised on CM5 chip by amine coupling (~1000 RU); increasing concentrations of antibodies injected at 30 μl/min; PBS with 0.05% Tween-20; global fit, 1:1 Langmuir model
Conditions: both partners purified

Binder | Kd
single-domain VHH antibody Z18 (VHH, pRA2 vector with N-terminal pelB signal peptide; also called wild-type Z18; source: E. coli BL21 (DE3), purified (Ni-NTA, SEC); not shown: hexa-histidine, C-terminal, kept) VHH: QVQLVESGGGLVQAGDSLRLSCAASGRTFSGYAMGWFRQAPGKEREFVARINWSGTLTYYADSVKGRFTGSRDNAKNTVYLQMNSLKPEDTAVYYCAQRGDSGSNYDPSGYSYWGQGTQVTVSS | 175 nM

Molecular target: T1, human serum albumin
Experiment: as above
Conditions: both partners purified
Remark: another data set of the same source

Binder | Kd | koff | kon
single-domain VHH antibody Z18 (VHH, pRA2 vector with N-terminal pelB signal peptide; also called wild-type Z18; source: E. coli BL21 (DE3), purified (Ni-NTA, SEC); not shown: hexa-histidine, C-terminal, kept) VHH: QVQLVESGGGLVQAGDSLRLSCAASGRTFSGYAMGWFRQAPGKEREFVARINWSGTLTYYADSVKGRFTGSRDNAKNTVYLQMNSLKPEDTAVYYCAQRGDSGSNYDPSGYSYWGQGTQVTVSS | 334 nM | 0.259 s⁻¹ | 774000 M⁻¹ s⁻¹
Z18-S133R (VHH, IMGT numbering; the methods describe vector and expression for Z18 and Z26; source: E. coli BL21 (DE3), purified (Ni-NTA, SEC)) VHH: QVQLVESGGGLVQAGDSLRLSCAASGRTFSGYAMGWFRQAPGKEREFVARINWSGTLTYYADSVKGRFTGSRDNAKNTVYLQMNSLKPEDTAVYYCAQRGDSGSNYDPSGYRYWGQGTQVTVSS | 67.2 nM | 0.078 s⁻¹ | 1.16e+06 M⁻¹ s⁻¹
Z18-V2L (VHH, IMGT numbering; the methods describe vector and expression for Z18 and Z26; source: E. coli BL21 (DE3), purified (Ni-NTA, SEC)) VHH: QLQLVESGGGLVQAGDSLRLSCAASGRTFSGYAMGWFRQAPGKEREFVARINWSGTLTYYADSVKGRFTGSRDNAKNTVYLQMNSLKPEDTAVYYCAQRGDSGSNYDPSGYSYWGQGTQVTVSS | 366 nM | 0.276 s⁻¹ | 754000 M⁻¹ s⁻¹
Z18-R50L/G78A/S133R (VHH, IMGT numbering; the methods describe vector and expression for Z18 and Z26; source: E. coli BL21 (DE3), purified (Ni-NTA, SEC)) VHH: QVQLVESGGGLVQAGDSLRLSCAASGRTFSGYAMGWFRQAPGKELEFVARINWSGTLTYYADSVKGRFTASRDNAKNTVYLQMNSLKPEDTAVYYCAQRGDSGSNYDPSGYRYWGQGTQVTVSS | 447 nM | 0.785 s⁻¹ | 1.76e+06 M⁻¹ s⁻¹
Z18-R50L (VHH, IMGT numbering; the methods describe vector and expression for Z18 and Z26; source: E. coli BL21 (DE3), purified (Ni-NTA, SEC)) VHH: QVQLVESGGGLVQAGDSLRLSCAASGRTFSGYAMGWFRQAPGKELEFVARINWSGTLTYYADSVKGRFTGSRDNAKNTVYLQMNSLKPEDTAVYYCAQRGDSGSNYDPSGYSYWGQGTQVTVSS | 412 nM | 0.284 s⁻¹ | 689000 M⁻¹ s⁻¹
Z18-Y114F (VHH, IMGT numbering; the methods describe vector and expression for Z18 and Z26; source: E. coli BL21 (DE3), purified (Ni-NTA, SEC)) VHH: QVQLVESGGGLVQAGDSLRLSCAASGRTFSGYAMGWFRQAPGKEREFVARINWSGTLTYYADSVKGRFTGSRDNAKNTVYLQMNSLKPEDTAVYYCAQRGDSGSNFDPSGYSYWGQGTQVTVSS | 12.9 nM | 0.096 s⁻¹ | 7.45e+06 M⁻¹ s⁻¹
Z18-G32D (VHH, IMGT numbering; the methods describe vector and expression for Z18 and Z26; source: E. coli BL21 (DE3), purified (Ni-NTA, SEC)) VHH: QVQLVESGGGLVQAGDSLRLSCAASGRTFSDYAMGWFRQAPGKEREFVARINWSGTLTYYADSVKGRFTGSRDNAKNTVYLQMNSLKPEDTAVYYCAQRGDSGSNYDPSGYSYWGQGTQVTVSS | 172 nM | 0.12 s⁻¹ | 696000 M⁻¹ s⁻¹
Z18-G32D/R50L/G78A/S133R (VHH, IMGT numbering; the methods describe vector and expression for Z18 and Z26; source: E. coli BL21 (DE3), purified (Ni-NTA, SEC)) VHH: QVQLVESGGGLVQAGDSLRLSCAASGRTFSDYAMGWFRQAPGKELEFVARINWSGTLTYYADSVKGRFTASRDNAKNTVYLQMNSLKPEDTAVYYCAQRGDSGSNYDPSGYRYWGQGTQVTVSS | 797 nM | 0.412 s⁻¹ | 516000 M⁻¹ s⁻¹
Z18-N85S (VHH, IMGT numbering; the methods describe vector and expression for Z18 and Z26; source: E. coli BL21 (DE3), purified (Ni-NTA, SEC)) VHH: QVQLVESGGGLVQAGDSLRLSCAASGRTFSGYAMGWFRQAPGKEREFVARINWSGTLTYYADSVKGRFTGSRDNAKSTVYLQMNSLKPEDTAVYYCAQRGDSGSNYDPSGYSYWGQGTQVTVSS | 344 nM | 0.238 s⁻¹ | 692000 M⁻¹ s⁻¹
Z18-I56V (VHH, IMGT numbering; the methods describe vector and expression for Z18 and Z26; source: E. coli BL21 (DE3), purified (Ni-NTA, SEC)) VHH: QVQLVESGGGLVQAGDSLRLSCAASGRTFSGYAMGWFRQAPGKEREFVARVNWSGTLTYYADSVKGRFTGSRDNAKNTVYLQMNSLKPEDTAVYYCAQRGDSGSNYDPSGYSYWGQGTQVTVSS | 296 nM | 0.22 s⁻¹ | 741000 M⁻¹ s⁻¹
Z18-T61L (VHH, IMGT numbering; the methods describe vector and expression for Z18 and Z26; source: E. coli BL21 (DE3), purified (Ni-NTA, SEC)) VHH: QVQLVESGGGLVQAGDSLRLSCAASGRTFSGYAMGWFRQAPGKEREFVARINWSGLLTYYADSVKGRFTGSRDNAKNTVYLQMNSLKPEDTAVYYCAQRGDSGSNYDPSGYSYWGQGTQVTVSS | 8.63 nM | 0.037 s⁻¹ | 4.33e+06 M⁻¹ s⁻¹
Z18-G78A (VHH, IMGT numbering; the methods describe vector and expression for Z18 and Z26; source: E. coli BL21 (DE3), purified (Ni-NTA, SEC)) VHH: QVQLVESGGGLVQAGDSLRLSCAASGRTFSGYAMGWFRQAPGKEREFVARINWSGTLTYYADSVKGRFTASRDNAKNTVYLQMNSLKPEDTAVYYCAQRGDSGSNYDPSGYSYWGQGTQVTVSS | 7110 nM | 1.1 s⁻¹ | 155000 M⁻¹ s⁻¹
single-domain VHH antibody Z26 (VHH, differs from Z18 at nine residues; pRA2 vector with N-terminal pelB signal peptide; also called wild-type Z26; source: E. coli BL21 (DE3), purified (Ni-NTA, SEC); not shown: hexa-histidine, C-terminal, kept) VHH: QLQLVESGGGLVQAGDSLRLSCAASGRTFSDYAMGWFRQAPGKELEFVARVNWSGLLTYYADSVKGRFTASRDNAKSTVYLQMNSLKPEDTAVYYCAQRGDSGSNFDPSGYRYWGQGTQVTVSS | 0.54 nM | 0.000816 s⁻¹ | 1.51e+06 M⁻¹ s⁻¹
